Tests used:
[1] = biological target: T1, human CD28 protein (Acro, CD8-H525a) (human, UniProt P10747 19-152); experiment: ELISA, coated human CD28
T1 construct: coated on the ELISA plate; also called human CD28 antigen

[2] = biological target: PD-L1 on TCR activator PD-L1-CHO cells (BPS bioscience) (UniProt Q9NZQ7 19-290, limits assumed); experiment: cell-based or functional assay
[3] = biological target: T2, human PD-L1 protein (Acro, PD1-H5258) (human, UniProt Q9NZQ7 19-238); experiment: ELISA, coated human PD-L1
T2 construct: coated on the ELISA plate; also called human PDL1 antigen
T2 sequence (Q9NZQ7 19-238 limits assumed): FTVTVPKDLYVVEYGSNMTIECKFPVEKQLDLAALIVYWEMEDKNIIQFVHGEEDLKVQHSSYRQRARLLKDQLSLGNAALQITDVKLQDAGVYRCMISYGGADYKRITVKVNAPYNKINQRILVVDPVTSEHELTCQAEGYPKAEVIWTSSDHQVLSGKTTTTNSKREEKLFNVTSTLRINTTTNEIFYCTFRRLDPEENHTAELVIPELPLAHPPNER

[4] = biological target: hPD-L1 (Octet R8 analyte) (human, UniProt Q9NZQ7 19-238, limits assumed); experiment: BLI Octet R8, Protein A probe
Chain of hPD-L1 (Octet R8 analyte) (Q9NZQ7 19-238 limits assumed): as above

[5] = biological target: T3, hCTLA-4 (Octet R8 analyte) (human, UniProt P16410 36-161, limits assumed); experiment: BLI Octet R8, Protein A probe
T3 sequence (looked up): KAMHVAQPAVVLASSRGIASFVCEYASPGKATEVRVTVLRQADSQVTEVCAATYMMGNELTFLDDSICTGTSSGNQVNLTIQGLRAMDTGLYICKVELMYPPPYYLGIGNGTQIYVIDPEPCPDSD

hCD28 (Octet R8 analyte) = hCD28 (Octet R8 analyte) (human, UniProt P10747 19-152, limits assumed); experiment: BLI Octet R8, Protein A probe
Chain of hCD28 (Octet R8 analyte) (P10747 19-152 limits assumed): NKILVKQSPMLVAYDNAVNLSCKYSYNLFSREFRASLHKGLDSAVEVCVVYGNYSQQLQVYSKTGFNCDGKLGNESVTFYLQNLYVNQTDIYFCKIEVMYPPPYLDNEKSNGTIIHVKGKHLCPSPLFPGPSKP

[6] = biological target: T4, human CTLA4 protein (Acro, CT4-H52H9) (human, UniProt P16410 36-161); experiment: ELISA, coated human CTLA4
T4 construct: coated on the ELISA plate; also called human CTLA4 antigen
T4 sequence (looked up): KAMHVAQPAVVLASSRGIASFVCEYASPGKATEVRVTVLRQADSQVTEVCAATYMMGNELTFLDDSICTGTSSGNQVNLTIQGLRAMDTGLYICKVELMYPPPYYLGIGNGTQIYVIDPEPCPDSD

Chain of PD-L1 on TCR activator PD-L1-CHO cells (BPS bioscience) (Q9NZQ7 19-290 limits assumed): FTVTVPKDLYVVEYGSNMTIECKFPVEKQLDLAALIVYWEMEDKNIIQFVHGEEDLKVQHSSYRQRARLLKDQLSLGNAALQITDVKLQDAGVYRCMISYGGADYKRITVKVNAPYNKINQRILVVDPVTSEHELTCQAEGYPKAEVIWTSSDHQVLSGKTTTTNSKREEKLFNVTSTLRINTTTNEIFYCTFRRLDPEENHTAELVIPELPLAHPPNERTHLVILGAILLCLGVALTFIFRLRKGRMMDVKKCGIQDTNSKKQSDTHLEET
T1 sequence (P10747 19-152 limits assumed): as the sequence (P10747 19-152 limits assumed) above

B1: antibody Abs-16 (sugemalimab) (antibody, human IgG4 S228P, lambda, V domains shown)
VH: EVQLLESGGGLVQPGGSLRLSCAASGFTFSSYAMSWVRQAPGKGLEWVSGISGSGGFTYYADSVKGRFTISRDNSKNTLYLQMNSLRAEDTAVYYCAKPPRGYNYGPFDYWGQGTLVTVSS
VL: SYVLTQPPSVSVAPGQTARITCGGNNIGSKSVHWYQQKPGQAPVLVVYDDSDRPSGIPERFSGSNSGNTATLTISRVEAGDEADYYCQVWDSSSDHVVFGGGTKLTVLG
notes: anti-PD-L1 control antibody; also called Sugemalimab (CS1001)
B1 was tested, and the binding result [1] was “no binding”, the “Jurkat-NFAT-Luc/CHO-PDL1 EC50” value [2] was 90 pM and the “Top induction relative to 10nM sugemalimab” value [2] was 100%. The EC50 [3] was 76.7 pM, the Kd [4] was 581 pM and the binding result [5] was “no binding (tested: 50nM)”. B1: no binding (tested: 50nM) (hCD28 (Octet R8 analyte)); no binding [6].
